Laboratory results as given in the Immune Epitope Database (IEDB).

Columns and labels:
HLA-B*40:01 = test: IEDB peptide-MHC binding, purified MHC/competitive/radioactivity; ≥ and ≤ were set here for values at or beyond the usual limits of such assays; settings: source organism: Human papillomavirus 16
HLA-C*05:01 = test: IEDB peptide-MHC binding, purified MHC/direct/fluorescence; filed as Kd, often an IC50 or EC50 that approximates it; ≥ and ≤ were set here for values at or beyond the usual limits of such assays; settings: source organism: Giardia lamblia ATCC 50803
HLA-C*06:02 = test: as above; settings: source organism: Giardia lamblia ATCC 50803
HLA-A*68:23 = test: IEDB peptide-MHC binding, purified MHC/competitive/fluorescence; filed as Kd, often an IC50 or EC50 that approximates it; ≥ and ≤ were set here for values at or beyond the usual limits of such assays; settings: source organism: Giardia lamblia ATCC 50803
HLA-B*15:42 = test: as above; settings: source organism: Giardia lamblia ATCC 50803
HLA-B*45:06 = test: as above; settings: source organism: Giardia lamblia ATCC 50803
HLA-B*73:01 = test: as above; settings: source organism: Giardia lamblia ATCC 50803
HLA-B*83:01 = test: as above; settings: source organism: Giardia lamblia ATCC 50803
HLA-C*04:01 [1] = test: as above; settings: source organism: Giardia lamblia ATCC 50803
HLA-C*14:02 = test: as above; settings: source organism: Giardia lamblia ATCC 50803
HLA-A*24:02 [2] = test: IEDB peptide-MHC binding, purified MHC/competitive/radioactivity; ≥ and ≤ were set here for values at or beyond the usual limits of such assays; settings: source organism: Homo sapiens
HLA-A*02:01 [3] = test: IEDB peptide-MHC binding, purified MHC/competitive/fluorescence; filed as Kd, often an IC50 or EC50 that approximates it; ≥ and ≤ were set here for values at or beyond the usual limits of such assays; settings: source organism: Vibrio cholerae 2740-80
HLA-A*02:03 = test: as above; settings: source organism: Vibrio cholerae 2740-80
HLA-A*02:12 = test: as above; settings: source organism: Vibrio cholerae 2740-80
HLA-A*02:16 = test: as above; settings: source organism: Vibrio cholerae 2740-80
HLA-A*02:19 = test: as above; settings: source organism: Vibrio cholerae 2740-80
HLA-A*03:01 [4] = test: as above; settings: source organism: Vibrio cholerae 2740-80
HLA-A*24:03 = test: as above; settings: source organism: Vibrio cholerae 2740-80
HLA-A*25:01 [5] = test: as above; settings: source organism: Vibrio cholerae 2740-80
HLA-A*26:01 = test: as above; settings: source organism: Vibrio cholerae 2740-80
HLA-B*27:03 = test: as above; settings: source organism: Vibrio cholerae 2740-80
HLA-B*46:01 = test: as above; settings: source organism: Vibrio cholerae 2740-80
HLA-B*51:01 [6] = test: as above; settings: source organism: Vibrio cholerae 2740-80
HLA-B*57:01 [7] = test: as above; settings: source organism: Vibrio cholerae 2740-80
HLA-A*01:01 = test: IEDB peptide-MHC binding, purified MHC/competitive/fluorescence; ≥ and ≤ were set here for values at or beyond the usual limits of such assays
HLA-A*02:01 [8] = test: as above
HLA-A*03:01 [9] = test: as above
HLA-A*11:01 = test: as above
HLA-A*24:02 [10] = test: as above
HLA-A*25:01 [11] = test: as above
HLA-A*29:02 = test: as above
HLA-A*31:01 = test: as above
HLA-A*68:02 = test: as above
HLA-B*07:02 = test: as above
HLA-B*08:01 = test: as above
HLA-B*14:02 = test: as above
HLA-B*18:01 = test: as above
HLA-B*35:01 = test: as above
HLA-B*37:01 = test: as above
HLA-B*40:02 = test: as above
HLA-B*44:03 = test: as above
HLA-B*51:01 [12] = test: as above
HLA-B*53:01 = test: as above
HLA-B*58:01 [13] = test: as above
HLA-B*15:17 = test: IEDB peptide-MHC binding, purified MHC/direct/fluorescence; filed as Kd, often an IC50 or EC50 that approximates it; ≥ and ≤ were set here for values at or beyond the usual limits of such assays; settings: source organism: Escherichia coli O157:H7
HLA-B*57:01 [14] = test: as above; settings: source organism: Escherichia coli O157:H7
HLA-B*58:01 [15] = test: as above; settings: source organism: Escherichia coli O157:H7
HLA-C*04:01 [16] = test: as above; settings: source organism: Escherichia coli O139:H28 str. E24377A
[17] = source organism: Ateles geoffroyi

Question: How did the IC50 (HLA-B*40:01) turn out when SEYRHYCYSL was run?
Answer: Its IC50 is 0.00054 µM.

Question: For YPFHIFYPV, which Kd (HLA-C*05:01) is on record?
Answer: The Kd was ≥ 20 µM.

Question: And the Kd (HLA-C*06:02)?
Answer: The Kd was ≥ 20 µM.

Question: And the Kd (HLA-A*68:23)?
Answer: The Kd was 0.0431 µM.

Question: What about the Kd (HLA-B*15:42) of the same sequence?
Answer: The Kd was ≥ 5 µM.

Question: What about the Kd (HLA-B*45:06) of the same sequence?
Answer: Its Kd is 4.7 µM.

Question: What about the Kd (HLA-B*73:01) of the same sequence?
Answer: The Kd was 1.33 µM.

Question: And the Kd (HLA-B*83:01)?
Answer: The Kd was 0.137 µM.

Question: And the Kd (HLA-C*04:01 [1])?
Answer: Its Kd is ≥ 5 µM.

Question: What about the Kd (HLA-C*14:02) of the same sequence?
Answer: Its Kd is 0.189 µM.

Question: TYSVSFDSL was tested. Which IC50 (HLA-A*24:02 [2]) did it give?
Answer: The IC50 was 0.197 µM.

Question: Which Kd (HLA-A*02:01 [3]) does the source give for HSYLWDHQM here?
Answer: Its Kd is ≥ 20 µM.

Question: And the Kd (HLA-A*02:03)?
Answer: The Kd was ≥ 20 µM.

Question: And the Kd (HLA-A*02:12)?
Answer: The Kd was ≥ 20 µM.

Question: And the Kd (HLA-A*02:16)?
Answer: The Kd was ≥ 20 µM.

Question: And the Kd (HLA-A*02:19)?
Answer: The Kd was ≥ 20 µM.

Question: What about the Kd (HLA-A*03:01 [4]) of the same sequence?
Answer: The Kd was ≥ 20 µM.

Question: What about the Kd (HLA-A*24:03) of the same sequence?
Answer: The Kd was ≥ 20 µM.

Question: And the Kd (HLA-A*25:01 [5])?
Answer: The Kd was ≥ 20 µM.

Question: What about the Kd (HLA-A*26:01) of the same sequence?
Answer: The Kd was ≥ 20 µM.

Question: And the Kd (HLA-B*27:03)?
Answer: Its Kd is ≥ 20 µM.

Question: What about the Kd (HLA-B*46:01) of the same sequence?
Answer: The Kd was ≥ 20 µM.

Question: And the Kd (HLA-B*51:01 [6])?
Answer: The Kd was ≥ 20 µM.

Question: And the Kd (HLA-B*57:01 [7])?
Answer: The Kd was 0.0547 µM.

Question: For ILNRETLLDFV, which IC50 (HLA-A*01:01; source organism: Homo sapiens) is on record?
Answer: The IC50 was ≥ 20 µM.

Question: And the IC50 (HLA-A*02:01 [8]; source organism: Homo sapiens)?
Answer: Its IC50 is 0.0939 µM.

Question: And the IC50 (HLA-A*03:01 [9]; source organism: Homo sapiens)?
Answer: The IC50 was ≥ 20 µM.

Question: And the IC50 (HLA-A*11:01; source organism: Homo sapiens)?
Answer: The IC50 was ≥ 20 µM.

Question: What about the IC50 (HLA-A*24:02 [10]; source organism: Homo sapiens) of the same sequence?
Answer: The IC50 was ≥ 20 µM.

Question: What about the IC50 (HLA-A*25:01 [11]; source organism: Homo sapiens) of the same sequence?
Answer: Its IC50 is ≥ 20 µM.

Question: And the IC50 (HLA-A*29:02; source organism: Homo sapiens)?
Answer: Its IC50 is 13.2 µM.

Question: And the IC50 (HLA-A*31:01; source organism: Homo sapiens)?
Answer: Its IC50 is ≥ 20 µM.

Question: And the IC50 (HLA-A*68:02; source organism: Homo sapiens)?
Answer: Its IC50 is ≥ 20 µM.

Question: What about the IC50 (HLA-B*07:02; source organism: Homo sapiens) of the same sequence?
Answer: Its IC50 is ≥ 20 µM.

Question: And the IC50 (HLA-B*08:01; source organism: Homo sapiens)?
Answer: The IC50 was ≥ 20 µM.

Question: What about the IC50 (HLA-B*14:02; source organism: Homo sapiens) of the same sequence?
Answer: The IC50 was ≥ 20 µM.

Question: What about the IC50 (HLA-B*18:01; source organism: Homo sapiens) of the same sequence?
Answer: Its IC50 is ≥ 20 µM.

Question: What about the IC50 (HLA-B*35:01; source organism: Homo sapiens) of the same sequence?
Answer: The IC50 was ≥ 20 µM.

Question: What about the IC50 (HLA-B*37:01; source organism: Homo sapiens) of the same sequence?
Answer: Its IC50 is ≥ 20 µM.

Question: And the IC50 (HLA-B*40:02; source organism: Homo sapiens)?
Answer: Its IC50 is 0.995 µM.

Question: And the IC50 (HLA-B*44:03; source organism: Homo sapiens)?
Answer: The IC50 was ≥ 20 µM.

Question: And the IC50 (HLA-B*51:01 [12]; source organism: Homo sapiens)?
Answer: Its IC50 is ≥ 20 µM.

Question: And the IC50 (HLA-B*53:01; source organism: Homo sapiens)?
Answer: The IC50 was ≥ 20 µM.

Question: And the IC50 (HLA-B*58:01 [13]; source organism: Homo sapiens)?
Answer: The IC50 was ≥ 20 µM.

Question: Which results are given for LPADPASVL?
Answer: IC50 (HLA-A*01:01; [17]): ≥ 20 µM; IC50 (HLA-A*02:01 [8]; [17]): ≥ 20 µM; IC50 (HLA-A*03:01 [9]; [17]): ≥ 20 µM; IC50 (HLA-A*11:01; [17]): ≥ 20 µM; IC50 (HLA-A*24:02 [10]; [17]): ≥ 20 µM; IC50 (HLA-A*25:01 [11]; [17]): ≥ 20 µM; IC50 (HLA-A*29:02; [17]): 1.09 µM; IC50 (HLA-A*31:01; [17]): ≥ 20 µM; IC50 (HLA-A*68:02; [17]): 0.818 µM; IC50 (HLA-B*07:02; [17]): 0.134 µM; IC50 (HLA-B*08:01; [17]): ≥ 20 µM; IC50 (HLA-B*14:02; [17]): 14.5 µM; IC50 (HLA-B*18:01; [17]): ≥ 20 µM; IC50 (HLA-B*35:01; [17]): 0.006 µM; IC50 (HLA-B*37:01; [17]): ≥ 20 µM; IC50 (HLA-B*40:02; [17]): 3.3 µM; IC50 (HLA-B*44:03; [17]): ≥ 20 µM; IC50 (HLA-B*51:01 [12]; [17]): 1.62 µM; IC50 (HLA-B*53:01; [17]): 1.61 µM; IC50 (HLA-B*58:01 [13]; [17]): ≥ 20 µM

Question: How did the Kd (HLA-B*15:17) turn out when YMWECPDFF was run?
Answer: Its Kd is 0.157 µM.

Question: What about the Kd (HLA-B*57:01 [14]) of the same sequence?
Answer: Its Kd is 1.44 µM.

Question: And the Kd (HLA-B*58:01 [15])?
Answer: The Kd was ≥ 5 µM.

Question: What about the Kd (HLA-C*04:01 [16]) of the same sequence?
Answer: The Kd was 0.137 µM.
